Laboratory results: patent US20090155176A1

Biological target: LFA-1 (lymphocyte function-associated antigen-1), purified heterodimer captured on ELISA plates (human) (UniProt P20701)
Test: competition ELISA (LFA-1/ICAM-1-Ig)
Conditions: ligand

Sequence of LFA-1 (lymphocyte function-associated antigen-1), purified heterodimer captured on ELISA plates (human) (P20701 26-1170, chain 1 of 2): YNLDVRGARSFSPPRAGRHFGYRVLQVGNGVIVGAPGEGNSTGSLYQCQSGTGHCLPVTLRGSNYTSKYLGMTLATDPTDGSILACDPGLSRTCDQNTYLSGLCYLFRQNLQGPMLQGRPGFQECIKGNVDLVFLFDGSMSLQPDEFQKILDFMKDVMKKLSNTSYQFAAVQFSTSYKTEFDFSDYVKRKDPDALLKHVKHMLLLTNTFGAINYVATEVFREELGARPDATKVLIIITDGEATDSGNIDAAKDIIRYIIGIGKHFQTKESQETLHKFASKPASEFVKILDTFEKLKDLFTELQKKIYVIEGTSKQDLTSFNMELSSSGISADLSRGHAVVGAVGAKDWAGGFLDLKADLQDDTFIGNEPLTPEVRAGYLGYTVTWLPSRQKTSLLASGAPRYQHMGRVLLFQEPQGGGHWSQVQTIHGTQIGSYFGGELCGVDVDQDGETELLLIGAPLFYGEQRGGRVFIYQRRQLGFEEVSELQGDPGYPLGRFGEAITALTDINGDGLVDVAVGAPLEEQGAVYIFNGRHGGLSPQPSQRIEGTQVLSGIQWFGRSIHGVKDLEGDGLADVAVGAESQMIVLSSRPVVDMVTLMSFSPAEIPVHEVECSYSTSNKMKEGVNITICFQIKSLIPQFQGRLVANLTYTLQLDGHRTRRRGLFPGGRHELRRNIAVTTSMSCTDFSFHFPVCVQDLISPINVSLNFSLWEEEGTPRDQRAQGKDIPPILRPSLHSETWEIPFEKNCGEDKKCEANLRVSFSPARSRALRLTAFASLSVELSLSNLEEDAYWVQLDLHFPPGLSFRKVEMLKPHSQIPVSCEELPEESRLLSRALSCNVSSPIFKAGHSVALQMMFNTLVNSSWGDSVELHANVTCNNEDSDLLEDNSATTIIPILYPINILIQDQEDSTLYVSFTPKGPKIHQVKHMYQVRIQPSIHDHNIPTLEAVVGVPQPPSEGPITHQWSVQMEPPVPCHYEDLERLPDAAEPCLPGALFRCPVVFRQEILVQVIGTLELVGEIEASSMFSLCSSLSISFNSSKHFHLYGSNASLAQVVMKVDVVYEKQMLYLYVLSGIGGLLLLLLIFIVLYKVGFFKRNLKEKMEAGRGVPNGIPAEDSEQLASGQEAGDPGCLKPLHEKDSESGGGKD
Sequence of LFA-1 (lymphocyte function-associated antigen-1), purified heterodimer captured on ELISA plates (human) (P05107 23-769, chain 2 of 2, further chain): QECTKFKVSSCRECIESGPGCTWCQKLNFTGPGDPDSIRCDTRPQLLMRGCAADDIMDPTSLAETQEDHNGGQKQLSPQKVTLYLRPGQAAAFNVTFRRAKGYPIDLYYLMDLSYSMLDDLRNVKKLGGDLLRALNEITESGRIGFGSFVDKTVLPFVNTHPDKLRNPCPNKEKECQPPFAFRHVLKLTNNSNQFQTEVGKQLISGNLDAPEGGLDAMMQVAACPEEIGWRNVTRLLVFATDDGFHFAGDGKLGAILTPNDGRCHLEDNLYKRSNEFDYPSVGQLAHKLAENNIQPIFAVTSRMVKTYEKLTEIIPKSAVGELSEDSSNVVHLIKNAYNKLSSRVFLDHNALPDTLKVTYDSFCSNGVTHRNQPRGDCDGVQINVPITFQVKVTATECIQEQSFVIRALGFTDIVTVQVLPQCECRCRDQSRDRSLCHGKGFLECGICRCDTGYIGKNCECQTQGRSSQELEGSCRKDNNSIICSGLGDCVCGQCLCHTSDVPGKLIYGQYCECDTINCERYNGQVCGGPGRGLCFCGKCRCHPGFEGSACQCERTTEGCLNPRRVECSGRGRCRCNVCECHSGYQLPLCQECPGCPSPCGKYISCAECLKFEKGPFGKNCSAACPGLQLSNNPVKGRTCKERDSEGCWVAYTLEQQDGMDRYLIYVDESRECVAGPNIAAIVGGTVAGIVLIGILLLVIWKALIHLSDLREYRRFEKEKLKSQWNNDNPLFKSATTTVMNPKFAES
Sequence of sICAM-1 (soluble ICAM-1) (P05362 28-480): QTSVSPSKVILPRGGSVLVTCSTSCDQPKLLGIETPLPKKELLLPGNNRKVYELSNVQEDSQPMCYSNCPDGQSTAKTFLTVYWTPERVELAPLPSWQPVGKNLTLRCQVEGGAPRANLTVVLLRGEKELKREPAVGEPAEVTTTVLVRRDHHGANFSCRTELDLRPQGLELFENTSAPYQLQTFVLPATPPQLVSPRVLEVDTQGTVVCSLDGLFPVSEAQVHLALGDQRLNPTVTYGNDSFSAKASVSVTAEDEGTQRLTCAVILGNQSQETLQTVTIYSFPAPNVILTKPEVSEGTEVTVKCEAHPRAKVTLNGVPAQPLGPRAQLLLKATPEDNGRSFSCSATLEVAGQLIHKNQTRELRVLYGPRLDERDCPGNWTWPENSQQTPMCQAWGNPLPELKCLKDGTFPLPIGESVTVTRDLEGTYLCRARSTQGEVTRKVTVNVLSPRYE

- IC50: 290 nM
Substance: sICAM-1 (soluble ICAM-1) (from UniProt P05362 28-480)
